Results reported in patent publication US20190317095A1 (ALLERGAN, published 2019).

Assays:
[1] = molecular target: T1, SNAP25206, full-length SNAP25 (rat) (rat, UniProt P60881 1-206); assay: IHC, vehicle-treated rat glabrous skin (FIG. 8F-J)
[2] = molecular target: T1, SNAP25206, full-length SNAP25 (rat); assay: Western blot, rat embryonic cortical cell lysates +/- BoNT/A
[3] = molecular target: T2, SNAP25206, full-length SNAP25 (human) (human, UniProt P60880 1-206); assay: IHC, human back skin biopsies +/- onabotulinumtoxinA (FIG. 9)
T2 sequence (P60880 whole entry): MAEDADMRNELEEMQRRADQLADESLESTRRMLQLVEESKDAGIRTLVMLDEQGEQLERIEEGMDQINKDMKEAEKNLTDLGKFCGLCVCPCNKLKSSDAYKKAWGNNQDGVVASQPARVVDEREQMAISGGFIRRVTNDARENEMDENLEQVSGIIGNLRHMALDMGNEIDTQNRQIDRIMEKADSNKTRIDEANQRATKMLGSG

[4] = molecular target: SNAP25197, BoNT/A-cleaved SNAP25 (human) (human, UniProt P60880 1-197); assay: Western blot, SiMa cell lysates +/- BoNT/A
Sequence of SNAP25197, BoNT/A-cleaved SNAP25 (human) (P60880 1-197 limits assumed): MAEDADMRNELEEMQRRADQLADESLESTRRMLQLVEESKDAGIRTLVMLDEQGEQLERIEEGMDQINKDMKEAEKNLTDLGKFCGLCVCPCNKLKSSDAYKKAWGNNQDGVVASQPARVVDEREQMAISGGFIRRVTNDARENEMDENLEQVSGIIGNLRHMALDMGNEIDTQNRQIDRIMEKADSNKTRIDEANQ

[5] = molecular target: SNAP25197, BoNT/A-cleaved SNAP25 (rat) (rat, UniProt P60881 1-197); assay: Western blot, summary (rat cortical lysates; SiMa lysates also run)
Sequence of SNAP25197, BoNT/A-cleaved SNAP25 (rat) (P60881 1-197 limits assumed): as the sequence (P60880 1-197 limits assumed) above

[6] = molecular target: T2, SNAP25206, full-length SNAP25 (human); assay: Western blot, SiMa cell lysates treated with BoNT/A, BoNT/C, BoNT/E or no toxin
[7] = molecular target: T3, SNAP25198, BoNT/C-cleaved SNAP25 (human) (human, UniProt P60880 1-198); assay: as above
T3 construct: range 1-198
T3 sequence (P60880 1-198 limits assumed): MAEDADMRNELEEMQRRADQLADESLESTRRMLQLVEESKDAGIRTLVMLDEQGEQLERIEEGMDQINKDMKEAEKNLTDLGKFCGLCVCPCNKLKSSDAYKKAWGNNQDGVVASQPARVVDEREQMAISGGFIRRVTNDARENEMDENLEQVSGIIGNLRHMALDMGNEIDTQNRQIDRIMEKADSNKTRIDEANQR

[8] = molecular target: T4, SNAP25180, BoNT/E-cleaved SNAP25 (human) (human, UniProt P60880 1-180); assay: as above
T4 construct: range 1-180
T4 sequence (P60880 1-180 limits assumed): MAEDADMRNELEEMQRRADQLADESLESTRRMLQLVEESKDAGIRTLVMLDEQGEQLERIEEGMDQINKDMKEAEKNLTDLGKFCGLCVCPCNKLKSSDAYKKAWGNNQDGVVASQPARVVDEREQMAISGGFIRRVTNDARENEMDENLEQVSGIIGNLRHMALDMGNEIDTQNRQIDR

T1 sequence (P60881 whole entry): as the sequence (P60880 whole entry) above

B1: original non-recombinant 3C1A5 mAb purified from ascites (antibody, V domains shown)
VH: QVKLQESGAELVKPGASVKISCKASGYTFTDHSIHWVKQKPGQGLEWIGYLFPGNGNFEYNEKFKGKATLTADKSSSTVYMYLNSLTSEDSAVYFCKRMGYWGQGTTVTVSS
VL: DVVMTQTPLTLSVTIGQPASISCKSSQSLLNTNGKTYLTWLIQRPGQSPQRLIYLVSKLDSGVPDRFSGSGSGTDFTLKISRVEAEDLGVYYCLQSSHFPFTFGSGTKLEIK
[1]
  binding result: no binding

B2: Ab635 anti-SNAP25197 rMAb (Murine-3C1A5) (antibody)
heavy: QVKLQESGAELVKPGASVKISCKASGYTFTDHSIHWVKQKPGQGLEWIGYLFPGNGNFEYNEKFKGKATLTADKSSSTVYMYLNSLTSEDSAVYFCKRMGYWGQGTTVTVSSAKTTPPSVYPLAPGSAAQTNSMVTLGCLVKGYFPEPVTVTWNSGSLSSGVHTFPAVLESDLYTLSSSVTVPSSPRPSETVTCNVAHPASSTKVDKKIVPRDCGCKPCICTVPEVSSVFIFPPKPKDVLTITLTPKVTCVVVDISKDDPEVQFSWFVDDVEVHTAQTQPREEQFNSTFRSVSELPIMHQDWLNGKEFKCRVNSAAFPAPIEKTISKTKGRPKAPQVYTIPPPKEQMAKDKVSLTCMITDFFPEDITVEWQWNGQPAENYKNTQPIMNTNGSYFVYSKLNVQKSNWEAGNTFTCSVLHEGLHNHHTEKSLSHSPGK
light: not shown
[2]
  binding result: no binding
[3]
  binding result: no binding

B3: Ab632 anti-SNAP25197 rMAb (Human-3C1A5) (antibody)
heavy: not shown
light: DVVMTQTPLTLSVTIGQPASISCKSSQSLLNTNGKTYLTWLIQRPGQSPQRLIYLVSKLDSGVPDRFSGSGSGTDFTLKISRVEAEDLGVYYCLQSSHFPFTFGSGTKLEIKRTVAAPSVFIFPPSDEQLKSGTASVVCLLNNFYPREAKVQWKVDNALQSGNSQESVTEQDSKDSTYSLSSTLTLSKADYEKHKVYACEVTHQGLSSPVTKSFNRGEC
[4]
  binding result: binds
[2]
  binding result: no binding
[5]
  binding result: binds
[6]
  binding result: no binding
[7]
  binding result: no binding
[8]
  binding result: no binding
